Data on one molecule can be found in patent publication US10940198B2, “Herpes zoster vaccine composition” (MOGAM INSTITUTE FOR BIOMEDICAL RESEARCH, priority 2016, dated 2021).

In one experiment the test system is entire VZV (VZV lysate). The experiment in a line: IFN-γ ELISPOT assay, leukocyte stimulation with VZV lysate. The following applies: Experimental Example 10, FIG. 12; gE alone versus gE together with gI or IE63 antigen. The format is in vivo, C57BL/6 mice. The protocol:
(§1) Since humans have a history of chickenpox infection, in order to mimic chickenpox infection in mice, live attenuated vaccine (LAV, 3000 pfu) was subcutaneously injected once to female C57BL/6 mice to perform primary immunization (LAV priming). After 28 days from the LAV priming (Day 0), various VZV vaccine compositions with or without VZV protein immunogen or adjuvant were administered by intramuscular injection to perform secondary immunization. […]
After performing the primary immunization and the secondary immunization, mouse IFN-γ ELISPOT (enzyme-linked immunospot) assay was carried out to confirm VZV antigen-specific cell-mediated immune response (CMI). […] The number of the resulting spots were counted with a device.
The gE protein, gE OLP, or VZV lysate-specific cell-mediated immune responses were measured according to the method of Experimental Example 2-2 (IFN-γ ELISPOT assay), and the experimental results are summarized in FIGS. 3, 4, and 5. […]
The gE protein, gE OLP, or VZV lysate-specific cell-mediated immune responses were measured according to the method of Experimental Example 2-2 (IFN-γ ELISPOT assay), and the experimental results are summarized in FIGS. 15, 16, and 17.

The next experiment relates to VZV antigen. The experiment in a line: VZV antigen-specific IgG titer (ELISA) after immunization. The experiment is classed as in vivo, C57BL/6 mice. The following applies: Experimental Example 10, FIG. 12; gE alone versus gE together with gI or IE63 antigen. As for the experimental part:
as §1
After performing the primary immunization and the secondary immunization, ELISA (enzyme-linked immunosorbant assay) was carried out for measuring VZV antigen-specific IgG titer. […] The HRP reaction was stopped by adding ELISA stop solution and optical density (OD) was measured using a spectrometer at a wavelength of 450 nm.
Various VZV antigen-specific IgG titers depending on the use of SLA-SE were determined in the same manner as in Experimental Example 2-1 except that any one of gE, gI, IE63, gB, gC, and gL was used as an antigen in the secondary immunization and SLA-SE was used as an adjuvant, and the results are summarized in FIGS. 8 and 9. […]
A general note: ELISA stands for enzyme-linked immunosorbent assay.

B1: gE antigen: VZV glycoprotein E of SEQ ID NO: 1 (protein)
chain: MGTVNKPVVGVLMGFGIITGTLRITNPVRASVLRYDDFHTDEDKLDTNSVYEPYYHSDHAESSWVNRGESSRKAYDHNSPYIWPRNDYDGFLENAHEHHGVYNQGRGIDSGERLMQPTQMSAQEDLGDDTGIHVIPTLNGDDRHKIVNVDQRQYGDVFKGDLNPKPQGQRLIEVSVEENHPFTLRAPIQRIYGVRYTETWSFLPSLTCTGDAAPAIQHICLKHTTCFQDVVVDVDCAENTKEDQLAEISYRFQGKKEADQPWIVVNTSTLFDELELDPPEIEPGVLKVLRTEKQYLGVYIWNMRGSDGTSTYATFLVTWKGDEKTRNPTPAVTPQPRGAEFHMWNYHSHVFSVGDTFSLAMHLQYKIHEAPFDLLLEWLYVPIDPTCQPMRLYSTCLYHPNAPQCLSHMNSGCTFTSPHLAQRVASTVYQNCEHADNYTAYCLGISHMEPSFGLILHDGGTTLKFVDTPESLSGLYVFVVYFNGHVEAVAYTVVSTVDHFVNAIEERGFPPTAGQPPATTKPKEITPVNPGTSPLLR
modifications: Human herpesvirus 3
Regarding B1, the “VZV-specific T cell response” value with entire VZV (VZV lysate) is recorded as “not significantly different”. Also, in the experiment on VZV antigen, the VZV-specific antibody response result is “not significantly different”.
